In US20200330588A1:

Key:
Test in all cases: flow cytometry, HEK293 cells transfected with gH alanine mutant and gL; % of gH-positive cells compared to WT
[1] = target: gH alanine mutant 480-481 transfected into HEK293 cells with gL (Human cytomegalovirus (consensus sequence; strain of the construct not stated); Human cytomegalovirus)
[2] = target: gH alanine mutant 488-489 transfected into HEK293 cells with gL (Human cytomegalovirus (consensus sequence; strain of the construct not stated); Human cytomegalovirus)
[3] = target: gH alanine mutant 490-491 transfected into HEK293 cells with gL (Human cytomegalovirus (consensus sequence; strain of the construct not stated); Human cytomegalovirus)
[4] = target: gH alanine mutant 482-483 transfected into HEK293 cells with gL (Human cytomegalovirus (consensus sequence; strain of the construct not stated); Human cytomegalovirus)
[5] = target: gH alanine mutant 484-485 transfected into HEK293 cells with gL (Human cytomegalovirus (consensus sequence; strain of the construct not stated); Human cytomegalovirus)
[6] = target: gH alanine mutant 478-488 (label as in Table 6)
[7] = target: gH mutant 480-486 (consecutive alanine substitutions) transfected into HEK293 cells with gL (Human cytomegalovirus (consensus sequence; strain of the construct not stated); Human cytomegalovirus)
[8] = target: gH alanine mutant 486-487 transfected into HEK293 cells with gL (Human cytomegalovirus (consensus sequence; strain of the construct not stated); Human cytomegalovirus)
[9] = target: gH mutant 485-492 (consecutive alanine substitutions) transfected into HEK293 cells with gL (Human cytomegalovirus (consensus sequence; strain of the construct not stated); Human cytomegalovirus)

Substance: human anti-gH monoclonal antibody MSL-109
- Avg. binding (% of mass) [1]: 87%
- Avg. binding (% of mass) [2]: 111%
- Avg. binding (% of mass) [3]: 89%
- Avg. binding (% of mass) [4]: 92%
- Avg. binding (% of mass) [5]: 86%
- Avg. binding (% of mass) [6]: 100%
- Avg. binding (% of mass) [7]: 66%
- Avg. binding (% of mass) [8]: 66%
- Avg. binding (% of mass) [9]: 65%
